B1: Inactive serine/threonine-protein kinase TEX14 (Mus musculus), Q7M6U3 (parent)
chain: MSRGAPFPVPCPVLLGTFTDDSLEAQLHEYAKQGNCVKLKKILKKGVCVDAVNTQGQSALFVAALLGHVKLVDVLVDYGSDPNHRCFDGSTPVHAAAFSGNQWILSKLLTAGGDLRLHDEKGRNPQAWALTAGKDRSTQMVEFMQRCTSHMKAIIQGFSYDLLKKIDSPQRLIGSPPWFGSLIQGSPNSSPNRQLKPGIISAQNIYSFGFGKFYLTSGMQLTYPGSLPVIGEKEVVQADDEPTFSFFSGPYMVMTNLVWNRSRVTVKELNLPTRPHCSRLRLADLLIAEQEHSSNLRHPNLLQLMAVCLSRDLEKIRLVYERITVGTLFSVLHERRSQFPVLHMEVIVHLLLQVADALIYLHSRGFIHRSLSSYAVHIVSAGEARLTNLEYLTESQDSGAHRNVTRMPLPTQLYNWAAPEVVLQKAATVKSDIYSFSVIIQEILTDSIPWNGLDGSLVKETIALGNYLEADVRLPEPYYDIVKSGIHAKQKNRTMNLQDIRYILKNDLKEFIGAQKTQPTESPRGQSYEPHPDVNICLGLTSEYQKDPPDLDIKELKEMGSQPHSPTDHSFLTVKPTLAPQTLDSSLSAQKPDNANVPSPPAACLAEEVRSPTASQDSLCSFEINEIYSGCLTLGTDKEEECLGTAASPEGDRPNQGDELPSLEEELDKMERELHCFCEEDKSISEVDTDLLFEDDDWQSDSLGSLNLPEPTREAKGKTSSWSKTDEYVSKCVLNLKISQVMMQQSAEWLRKLEQEVEELEWAQKELDSQCSSLRDASLKFANAKFQPAVGPPSLAYLPPVMQLPGLKQPENGGTWLTLARSPGNEREFQEGHFSKKPEKLSACGWKPFTQVSEESRGDCSELNNQLPTLRGPGKQSTGEQLPSTQEARESLEKNTNQNSRSMASVSSEIYATKSRNNEDNGEAHLKWRLAVKEMAEKAVSGQLLLPPWNPQSSAPFESKVENESTPLPRPPIRGPESTEWQHILEYQRENDEPKGNTKFGKMDNSDCDKNKHSRWTGLQRFTGIRYPFFRNHEQPEQNEASQASCDTSVGTEKFYSTSSPIGDDFERFQDSFAQRQGYVEENFQIREIFEKNAEILTKPQFQAIQCAEDKQDETLGETPKELKEKNTSLTDIQDLSSITYDQDGYFKETSYKTPKLKHAPTSASTPLSPESISSAASHYEDCLENTTFHVKRGSTFCWNGQEAMRTLSAKFTTVRERAKSLESLLASSKSLPAKLTDSKRLCMLSETGSSNVSAAFVTSTHATKRKSLPRELAEATSQQHLDELPPPAQELLDEIEQLKQQQVSSLASHENTARDLSVTNKDKKHLEEQETNSSKDSSFLSSREIQDLEDTERAHSSLDEDLERFLQSPEENTALLDPTKGSTREKKNKDQDVVEQKRKKKESIKPERRESDSSLGTLEEDELKPCFWKRLGWSEPSRIIVLDQSDLSD
partner: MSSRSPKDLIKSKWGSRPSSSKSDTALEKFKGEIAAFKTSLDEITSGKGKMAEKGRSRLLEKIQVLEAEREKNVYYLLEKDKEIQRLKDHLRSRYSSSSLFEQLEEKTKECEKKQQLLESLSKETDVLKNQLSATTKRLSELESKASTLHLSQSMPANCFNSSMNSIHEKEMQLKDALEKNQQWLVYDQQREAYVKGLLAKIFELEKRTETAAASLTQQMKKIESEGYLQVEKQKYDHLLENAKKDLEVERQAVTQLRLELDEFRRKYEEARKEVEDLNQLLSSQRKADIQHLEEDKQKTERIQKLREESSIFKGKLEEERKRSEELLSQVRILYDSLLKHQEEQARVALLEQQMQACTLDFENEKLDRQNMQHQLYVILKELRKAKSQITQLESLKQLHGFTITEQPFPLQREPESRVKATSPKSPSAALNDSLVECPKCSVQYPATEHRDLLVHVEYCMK

Variants of: B1
Conditions: with cep55_mouse Cep55, Q8BT07

effect of a mutation on the interaction | Variant
decreasing interaction | P793A
disrupting interaction | Y797A
disrupting interaction | P792A
